Experimental data taken from patent US20170304405A1.
One block for each substance: values may come before it.

Key:
Test in all cases: cell-based or functional assay
[1] = target: somatostatin receptors (multi-somatostatin receptor)
[2] = target: somatostatin receptor 2 (SSTR2) (human) (UniProt P30874)
[3] = target: GHRH receptor (GHRH-R) (human) (UniProt Q02643)
GPR101 (human) = GPR101 (human) (UniProt Q96P66)
UniProt Q96P66, sequence (Q96P66 whole entry): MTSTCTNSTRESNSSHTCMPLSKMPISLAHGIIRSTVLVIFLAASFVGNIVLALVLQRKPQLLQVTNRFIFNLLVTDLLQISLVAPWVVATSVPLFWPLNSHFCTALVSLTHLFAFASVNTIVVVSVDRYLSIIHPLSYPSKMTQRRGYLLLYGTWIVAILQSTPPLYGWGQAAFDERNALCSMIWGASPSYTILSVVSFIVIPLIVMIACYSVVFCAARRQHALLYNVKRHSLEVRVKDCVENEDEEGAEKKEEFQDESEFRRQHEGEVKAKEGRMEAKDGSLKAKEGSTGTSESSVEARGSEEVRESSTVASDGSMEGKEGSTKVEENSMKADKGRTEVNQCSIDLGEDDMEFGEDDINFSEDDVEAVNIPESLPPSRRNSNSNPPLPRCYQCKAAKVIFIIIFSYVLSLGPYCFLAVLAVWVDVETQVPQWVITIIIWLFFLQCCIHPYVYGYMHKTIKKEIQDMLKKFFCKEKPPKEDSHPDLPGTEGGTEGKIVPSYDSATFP

UniProt Q02643, sequence (Q02643 23-423): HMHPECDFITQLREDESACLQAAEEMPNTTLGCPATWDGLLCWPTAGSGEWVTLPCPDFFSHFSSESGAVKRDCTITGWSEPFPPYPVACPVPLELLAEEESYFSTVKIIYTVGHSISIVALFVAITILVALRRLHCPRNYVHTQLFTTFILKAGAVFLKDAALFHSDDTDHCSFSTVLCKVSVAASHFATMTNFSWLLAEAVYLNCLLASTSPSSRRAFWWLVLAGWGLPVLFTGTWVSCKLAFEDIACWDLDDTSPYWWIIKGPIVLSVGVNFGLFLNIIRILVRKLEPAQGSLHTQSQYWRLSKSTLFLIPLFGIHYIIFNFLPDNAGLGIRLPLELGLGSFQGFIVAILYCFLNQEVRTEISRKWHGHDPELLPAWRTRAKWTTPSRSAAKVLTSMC
UniProt P30874, sequence (P30874 whole entry): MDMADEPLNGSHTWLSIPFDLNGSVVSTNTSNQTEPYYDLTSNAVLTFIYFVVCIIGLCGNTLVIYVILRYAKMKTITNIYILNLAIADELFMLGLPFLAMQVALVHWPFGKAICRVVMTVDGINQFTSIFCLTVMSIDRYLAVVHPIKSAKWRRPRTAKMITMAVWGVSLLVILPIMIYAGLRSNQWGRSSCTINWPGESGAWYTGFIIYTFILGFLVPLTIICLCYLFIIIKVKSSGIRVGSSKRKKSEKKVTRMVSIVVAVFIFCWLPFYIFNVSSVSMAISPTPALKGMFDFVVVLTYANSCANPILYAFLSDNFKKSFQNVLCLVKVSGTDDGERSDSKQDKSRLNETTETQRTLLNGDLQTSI

GH secretion by primary X-LAG pituitary tumour cells, % change vs control, maximum inhibition at 10^-8 M [1]: -18%
Substance: pasireotide (peptide)

Prolactin secretion by primary X-LAG pituitary tumour cells, % change vs control, octreotide at 10^-9 M [2]: -26%
Substance: octreotide (peptide)

GH secretion by primary X-LAG pituitary tumour cells, % change vs control wells, GHRH at 10^-10 M [3]: 410%
Prolactin secretion by primary X-LAG pituitary tumour cells, % change vs control wells, GHRH at 10^-8 M [3]: 11%
Substance: GH releasing hormone (GHRH) (from UniProt P01286 32-75) (ligand)

GH secretion by primary X-LAG pituitary tumour cells, % change vs control, GnRH1-5 at 10^-10 M (GPR101 (human)): 15%
Substance: GnRH1-5 (from UniProt P01148 24-28) (peptide)
